Results taken from PMC7138840.

Each binder was assayed against free tubulin heterodimers (human (endogenous in HEK293T and HeLa)) (UniProt P68363).
Chain of UniProt P68363 (P68363 whole entry, chain 1 of 2): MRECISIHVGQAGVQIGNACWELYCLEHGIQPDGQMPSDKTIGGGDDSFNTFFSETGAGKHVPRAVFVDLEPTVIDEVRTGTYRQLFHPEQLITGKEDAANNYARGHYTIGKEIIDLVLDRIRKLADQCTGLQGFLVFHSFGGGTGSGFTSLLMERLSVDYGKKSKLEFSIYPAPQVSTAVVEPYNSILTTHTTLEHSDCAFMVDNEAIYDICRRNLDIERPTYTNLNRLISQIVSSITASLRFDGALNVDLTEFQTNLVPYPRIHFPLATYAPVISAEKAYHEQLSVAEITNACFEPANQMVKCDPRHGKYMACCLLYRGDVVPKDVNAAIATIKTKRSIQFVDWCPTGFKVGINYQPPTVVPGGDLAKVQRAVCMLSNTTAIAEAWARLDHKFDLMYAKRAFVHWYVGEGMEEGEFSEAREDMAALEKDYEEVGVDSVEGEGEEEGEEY
Chain of UniProt P68363 (P07437 whole entry, chain 2 of 2, further chain): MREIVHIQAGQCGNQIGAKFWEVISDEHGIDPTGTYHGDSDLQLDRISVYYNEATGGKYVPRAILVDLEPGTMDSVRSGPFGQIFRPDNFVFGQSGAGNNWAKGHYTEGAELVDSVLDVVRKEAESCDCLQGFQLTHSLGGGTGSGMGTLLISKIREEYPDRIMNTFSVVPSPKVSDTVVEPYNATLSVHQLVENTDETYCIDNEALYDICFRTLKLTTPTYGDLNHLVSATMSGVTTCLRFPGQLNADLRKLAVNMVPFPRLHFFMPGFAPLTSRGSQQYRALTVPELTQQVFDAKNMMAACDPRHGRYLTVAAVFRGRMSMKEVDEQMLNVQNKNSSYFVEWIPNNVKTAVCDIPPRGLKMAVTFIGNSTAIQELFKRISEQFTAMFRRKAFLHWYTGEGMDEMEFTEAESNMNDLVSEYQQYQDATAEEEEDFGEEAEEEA

Relative FRET increase (RFP/YFP ratio of the intramolecular sensor) after 10 µM paclitaxel for 1 h, HEK293T cells | Binder
1.11 | ROPY (RFP-OP18-YFP) FRET sensor: stathmin/oncoprotein18 (OP18) with sYFP2 donor and mScarlet-I R125I acceptor (natural protein) MASSDIQVKELEKRASGQAFELILSPRSKESVPDFPLSPPKKKDLSLEEIQKKLEAAEERRKSHEAEVLKQLAEKREHEKEVLQKAIEENNNFSKMAEEKLTHKMEANKENREAQMAAKLERLREKDKHVEEVRKNKESKDPADETEAD
1.01 | ROPY-4E, phospho-mimetic variant of ROPY with four serines mutated into glutamic acids (natural protein) MASSDIQVKELEKRAEGQAFELILEPRSKESVPDFPLEPPKKKDLSLEEIQKKLEAAEERRKEHEAEVLKQLAEKREHEKEVLQKAIEENNNFSKMAEEKLTHKMEANKENREAQMAAKLERLREKDKHVEEVRKNKESKDPADETEAD
1.15 | ROPY-4A, phospho-blocking variant of ROPY with four serines mutated into alanines (natural protein) MASSDIQVKELEKRAAGQAFELILAPRSKESVPDFPLAPPKKKDLSLEEIQKKLEAAEERRKAHEAEVLKQLAEKREHEKEVLQKAIEENNNFSKMAEEKLTHKMEANKENREAQMAAKLERLREKDKHVEEVRKNKESKDPADETEAD
